Experiment: soluble fraction after stress (log2 fold change); higher = more stays soluble; pooled small domains, quantitative proteomics
Details: stress: 75 degC
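Note: 20 min heating vs room temperature control held 20 min.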

Row | Sequence | soluble fraction (log2)
1 | HMFDFGNHLRMLREKHGISQEELGRRVGRAGSVISNYENNIKIPTLDVLTTMARIYDVSLDYLVG | -1.59
2 | HMFDFNNLSSLSDVELSVYRFVVNNPEKVAYMRVRDIAQKTHVANSSVMRFVHKIGFASFPEFKAYLKNIN | -0.997
3 | HMFDITKEVLKQSGLYNLYKNDESLEGINRIQNIEELLNGIKDFVENNEKSQASVSSFLQDVALATDQ | 0.258
4 | HMFDKVSVNNLAEAIGRLDGIYQDVLRLYYVHELPSKEIGKILNINHLTVNTRLKRAREKLFKMLKEE | -3.11
5 | HMFDNPLSERDKEILNHISMGKSNKEIANQVGLAEQTIKNTISVILDKTFTSNRAQAASMATKNKW | 0.666
6 | HMFDPTDLPEKQLMVYEIIKSNNGINMTNIASLLGFNKTTVDNAIRALKKKEIVVFKGTNRSGGYFNT | -1.91
7 | HMFEDEYLETMYAFYETDPQALVRTGDLASSLKVSPASATEMVQRLASKGFVDYIPYKGASLTELGLAM | 0.0785
8 | HMFEDYLRMKGLSIVSFSKQTGIPISTLRNLNKIRYDKWKIRYLEELSNVLNKTIQEIIEELKNMG | -3.5
9 | HMFEFFKGIYSISLLKKDGIFFVTFKDENKEAVKHIFPEKPTALELGIKVMEMFEYKERYDGII | -0.455
10 | HMFEPLTDREREVLQALADGLSDKEIAERLYISPATVRTHITAILGKLDANSRLQAVVVAARHNLVTL | -0.478
11 | HMFERISELLTDEELAVYKRGRNANASSVPKHADIADYRRATGVEALFGYLYIKGEIDRINQLFELA | -0.154
12 | HMFESQYIGKIATAITDISAFSGRLKIYDENWEARTLGEDAPEIKKGAKVKIVRHDDLTMFVEKK | -0.397
13 | HMFETLVLALAQAWPAERGPVEALQFEGGRLSLQRSGFADEQVEALRQRLSSEGWTLQTEQGRLILNKAG | -1.17
14 | HMFFDSDTDIQNALNAENSIKKYQLFRTQTLYNSAQSDIDFVNQPEVKAKLFDALENLKNKLGFLAEPT | -0.0329
15 | HMFGIEIPEEAGKLQDYTLTDDDLEGGNTLKEIQFPQGARVVIIRRDDKFIIPDGSVELQSGDQLLIIYGE | -1.59
16 | HMFGSKDVKRAIEDYAAAMSSQPRALSAPQRKVLIRHLATSGLLQLRGAAKIVADELGISRASVYNALKV | -1.53
17 | HMFHDPTMEETLINLKGITNEVLSLLSSSKIKKLEDLAEMSVPELRDIVENISDEEASALIMEARKPWF | -0.22
18 | HMFHGEGVQANNIQAYIVLKMAAVNGAEDALDTADEVSEKMSREDLETATQVLGQIFRKYLMELQSA | -1.22
19 | HMFIKVEVPDLTGMTLTEVRKALEEKNLKMGDIRPAGQTSLVAKVINQSPQAKMVVDEYSEVSIQFEE | -0.985
20 | HMFIMQTVALGSEGPDVRALQSILNRIGYNAGTVDGIFGSRTRQAVIAFQRNNGLAADGVAGPATWG | 0.188
21 | HMFINITAITGNNYNTPDAARNALPNTYNKKIGLVFTYRDLTNRYRVYLYNSETSNYIPLDSYM | -3.5
22 | HMFIPGDSVRVHVKVVEGSNERIQMFEGVVIARQGSGVRENFTVRRISYGVGIERTFPVHSPRL | -0.226
23 | HMFISVDGLIHMGRTHLVILGGVEFARGDMIPETGEVVKSIGADSVVLELPDTGMRRTLNFV | -2.97
24 | HMFKINNIIVSGLSEKSNLQTSEEIKNILFENIFFIKKDVLFKILEKNNLINSFEIKKIYPDTIEVKIKKT | 0.0453
25 | HMFKITNTLNKTAEVYLTIPENKKGKGKIMISVNGAFHELEAMTENDKIQSGAVVKVVRIENDNILIVET | -2.18
26 | HMFKMRVNGKEVIGMAITAKPQANPIDVADEIKKFVIDANTKLPSTMKLEVLYDATGIFRASISEVIS | -1.08

Row | Sequence | soluble fraction (log2)
27 | HMFLDKDTLNQLYRFGIALTGNEQDSQDVLHTAIERFLRNKPQQINQQAAYIRTIMRNYWYDELRKLKTQ | -3.06
28 | HMFLPETEVKSFFHRGITKISPSLAMDIADFFRMPFAVILKRALALEVISDEQYRSFMTVKPEHV | 0.137
29 | HMFLSQQDINRANAASVTDMGDIIRRTFERNAAEINGLELSDAEKKDAVKQMATLATTALKTAAGAVNPY | -0.0457
30 | HMFLSSEERRERIIEVLRQQDEVTVVELSHRLGVSEVTTRKDLQQLEEQGYLTRVRGGAVVSGRGQL | -0.0348
31 | HMFMNFAEHLMALRKQRGWSQEELGSQIGVTRQTVSKWEMGQSTPELEKLVELSRLFGMSIDQLVGL | -0.118
32 | HMFNISEKLKKYRNALGLTQTEVAEKIEITKPTYASYEKGKDISIGTLKKLADLFEVSFESFFSE | -0.283
33 | HMFNLFPHLSVLRNITLAPQKVKGLNRSESNEIAMSLLERVGIPEQSDKFPSQLSGGQQQRVAIARALAM | -0.502
34 | HMFPELSEEEQIIVSLLQKQPDGLQINTLVVESNIPVNRMSGILFELEMKGIIRMAAGGVYRLL | -1.35
35 | HMFQEGLVAPPAYTRPESFRGWEVPEILRSGNFPAIAKWQHEESLRLTRERRPAMLEAYERRT | -0.107
36 | HMFQNYTDAVVVASKTFFYNMPDESTRKSAYLIQGDRIMVEKSQRNFVYVTFTNEASGRTTTGWLKSDDLE | -2.65
37 | HMFSDDEINRLKARDSILVNLRDSEKQVWELYTDGKTVQNIANQLNKHKQSISATIINIKNKISRKQNMLK | -0.709
38 | HMFSGVQLGQAISEAIKRKNVSQKEVADHFGVKQPSVSGWIKNGRIDKKHLDKLIDYFSDVVTPSHFGIE | 0.27
39 | HMFSQDQIFLRSGEKIDARVIEVTPEFIKYKSKANPEGPLYSKKITDVLLITYANGTTEVYE | -0.764
40 | HMFTDAEIKQFAAAAVEVTKIQQDSTISAADKQPKMLAVVQSSGLPPEKFNQIGQAAAADPALQQRIQA | 0.038
41 | HMFTEPQKLVKRILNMLGHRYDDASIQARSDFQASNNYHKVQVKKKRESMEEYTAWLEEMYDAYRIN | -1.49
42 | HMFTFEDMDKFESLLTTGLTDVQRRIYSLVTHDGKEYDLIAETLGISVEAVRMHMSRARKKIRENYKKID | -3.38
43 | HMFTIGENIRDLRLERAITQEQLAEQLNVSAPAVSKWERGEAYPDITLVPKLAEILGVSTDKLFGVD | 0.0273
44 | HMFTKYSPDFKLSVILDMRKNNLGYGEVVRKYWNLDSYKESDRHRSQVRLWERIFLEEGVEGFM | -4.63
45 | HMFTLDDLQATYDIFERAEQNSDAMLAFQKVITAEGLDFDLTSPQGIVDFFKGAAPTEIYDLYEAS | -0.547
46 | HMFTNSTSSRQLTNSDDTLRLNISSQTRQMLPNGQPFGGSLSGKLLLVIYGATTRSIPAQTTPEKIVV | -0.198
47 | HMFTSVDVAPDLRTAKVFYSVLGRKKSDKEINIAINQKRKAFKKFMGPELHLKNIPDLHFYYD | -0.369
48 | HMFTYDLSERELTIIELVAKGLNNKELADTLFLSEGTIRNYLSTLLNKLDLRDRTQLAIFYYQHL | -2.16
49 | HMFVEEGSLKKITFDTYEFNITDNLKSLRVTYQGLLPNLFREGQGVVIEGILLEQNYIQANTVF | 0.249
50 | HMFVTGTTIKKLREEKRMTQGELAQMIGVSDKAVSKWETGRGLPDISLLEPLSRALGISVAELFAGQH | -0.612
51 | HMFWEGYLAARREQFLKDQQVLLGNEFRSNPDFWLEVASKEWAVVEERLSTGADVSEEVQETMGLDF | -2.13
52 | HMFYNSSDNAYKILEINKSATVDEIKAAYRKMAKKYHPDKVIHLGQEHQKGAEEKFRQVQEAYEELQKERG | 0.19

Row | Sequence | soluble fraction (log2)
53 | HMGAAVEVISLRYRSAAELLPIVRSLLSTEGKISADERTNSLIIVDSDEAVARVIHSLATLDT | -1.3
54 | HMGADGIPGKNGENGETSYVHFAYATSADGKTGFSTTDTVGKTYMGQYADFEKADSEDPTKYRWGKFQGP | 0.0581
55 | HMGAFAIHTASELSAGMRIRHERFGPGVITGIDTANPASGARIQVDFDNGTSKTLLLSYAKFQI | -2.53
56 | HMGAGKVVDGVTYDFVFDVDVADGQPPLRLPYNRGEDVYQAAERFILRNELPATYREQIVNFIVQNTPG | -0.116
57 | HMGAISGEQREFYTVFRGHLNSHVGEFKVEDIENLLMKAKTEVPDLLEEEFLKMGEAILNRYRN | 0.0818
58 | HMGAKEHLAGETLRMAVELLSEKQGIPAEQALIRFISSPVYDALYDLDTGMWTQGPTRLLEAFEALE | -2.01
59 | HMGALARLLASVEQELGVTRDRMTRTQKQEAVTLLNEWGAFTLRKSVEDVAEALGVSRFTVYNYLERAEA | -2.99
60 | HMGALSLDMLFDRFDALQEQSMGDKTEGGQELRGMIRTFIEQEKLDIRVTRTTTNAALLEMIEKEMQG | -0.717
61 | HMGASALTEREREVLRLLEGGGSDKRIARQLAISEHGVRYHLKSIYKKLGVHDRVSAIAAGRRLAS | -1.37
62 | HMGASTQLVEIKNAYENGEWQNVIDLAGKLHEKYNGSEEDKEAQEMAKNSQSKLDEAAAAKAAEEA | 0.0816
63 | HMGASYSQFLDQVDSGNVQKVAFGGDMRGGTSQLTYTTRGGQSSTITAPFDRDLINVLRTKNVEIVQEEP | 0.236
64 | HMGATFITSSKDNAINIRQAAGTDSKVIETIKNGHILESSEKSGEWYKVTYYDSDIKKTFTGYIHNSQLK | 0.376
65 | HMGAVQFAEQKIHIGSRWIGKKISEFSAESDAFVILIKRGSEVVIPRGPTDIVENDVLVIHVPD | -3.05
66 | HMGAVVSPMPGVILDIKVKEGDSVSEGQTVIILEAMKMENEIVSEFTGTVSAIRVKKGDTVDTDAVLVEI | -1.76
67 | HMGAYPENSLLKERGQSAVYLIQENRKRLFFNAEAFLINGYNWKDIQVVDDLSKILTGKVIYAK | -2.83
68 | HMGDAATVFRDHYNINSAAQAQAALDRKEALWEQPNPWRDSDNREVFDWAAQTVKDRFDSGKYKPK | 0.626
69 | HMGDDVRKNILDVLSKFERVDITDLDSLELVRFYLEIEDIFDIEIKENDFYRLKSVDSIVDYIRNKSFF | -1.31
70 | HMGDIQFMEYRINHSSGWIGKNISDFAAVSKNLVILIKRGQDVVIPRGPTAIMEDDVLVLHA | -1.88
71 | HMGDITALMPGKVIQIIVKEGQEIKVGDPLIVIESMKMENTISSEVNGTIKSINIQIDDNVQFDQVLFTV | -2.54
72 | HMGDITIPDLQGMSFDQAREKLKALGLSIGKISYTSDTSKDDGVVISQGLQAGGKASKGATVDITINET | 0.332
73 | HMGDLEEAVKDFSEAIRLNDSWAEAYANRAVVYAEQGDAAQSDQDAEKARLLGVDQNRLNEMLNAVNS | 0.294
74 | HMGDLKALMPGKVTQVLVSGGQKVKVGEPVLLMESMKMEQTIVATKDGDISEILVSEGDTVEVGKIMIKI | -0.00398
75 | HMGDLTVPDLSGLTVDQAKQRLKDMGLVLGKITTQEDSSKPDGVIISQSPSADGKINKGQLVDVVVNKLS | 0.034
76 | HMGDTHKVPGVKGVNVEQAMDMLSRLDLKAVVIDSVYVKDKKLGTVIEQNPVEGSVVKPGRPIYLVVNSRS | 0.352
77 | HMGDTISVPAVRTLAYNKAMDILNAEGLKGIVADSVYDNHTAPGTVIEQNPKAGTIVKEGREVFLTIHA | 0.117
